Consider three substances from publication PMC5544353.

This assay has as its target Reconstituted CENP-A chromatin (CENP-A nucleosome arrays with Myc-tagged histone H4) (UniProt Q569M3). Put plainly: chromatin-bead binding read by immunofluorescence.
Sequence of UniProt Q569M3 (Q569M3 whole entry, looked up): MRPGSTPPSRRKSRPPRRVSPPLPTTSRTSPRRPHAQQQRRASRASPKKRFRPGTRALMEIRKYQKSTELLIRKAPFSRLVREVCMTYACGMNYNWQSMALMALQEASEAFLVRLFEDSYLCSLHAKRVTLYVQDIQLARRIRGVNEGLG

The substance “Xenopus laevis M18BP1-1 (natural protein)” displayed a fold enrichment on CENP-A chromatin relative to H3 chromatin of 2.5 fold. With “Xenopus laevis M18BP1-2, full length (natural protein)”, the fold enrichment on CENP-A chromatin relative to H3 chromatin stood at 5 fold. As for “M18BP1-2 truncation, amino acids 747-944 (in vitro translated) (domain or fragment)”, the binding as percent of full-length M18BP1-2 came out at 53%.
